According to patent US20220119517A1 (NANJING SANHOME PHARMACEUTICAL, published 2022):
Residue numbers refer to the chain shown, from its start.

B1: 305CHI (antibody, human IgG1, V domains shown)
VH: EVKLVESGGGLVQPGGSLKLSCAASGFTFSDYGMAWVRQAPRKGPEWVAFISNLAYSIYYADTVTGRFTISRENAKNTLYLEMSSLRSEDTAMYYCARLGYGNSFAYWGQGTLVTVSA
VL: DIVMTQSPSSLTVTAGEKVTMSCKSSQSLLNSGNQKNYLTWYQQKPGQPPKLLIYWASTRESGVPDRFTGSGSGTDFTLTISSVQAEDLAVYYCQNELFYPLTFGAGTKLELK
notes: chimeric with the constant region of human IgG1
B2: 315CHI (antibody, human IgG1, V domains shown)
VH: B1 VH with Y101R
VL: B1 VL
notes: as for B1
B3: 322CHI (antibody, human IgG1, V domains shown)
VH: B1 VH
VL: B1 VL with A57G, E97N, L98Y, F99Y
notes: as for B1
B4: 324CHI (antibody, human IgG1, V domains shown)
VH: B1 VH
VL: B1 VL with A57G
notes: as for B1
B5: 301CHI (antibody, V domains shown)
VH: B1 VH
VL: B1 VL with E97N, L98Y, F99Y
notes: as for B1
B6: 321CHI (antibody, human IgG1, V domains shown)
VH: B1 VH with T28G, L54S, Y101R
VL: B1 VL
notes: as for B1
B7: 303CHI (antibody, V domains shown)
VH: B1 VH with D31R, R42G, L54S
VL: B1 VL with A57G, E97D, L98Y, F99S
notes: as for B1
B8: 309CHI (antibody, human IgG1, V domains shown)
VH: B1 VH with T28G, L54S
VL: B1 VL
notes: as for B1
B9: C42B12D10 (antibody, mouse IgM, V domains shown)
VH: QVQLQQSGAELVKPGASVKMSCKASGYTFTTYPIEWMKQNHGKSLEWIGNFHPYNDDTKYNEKFKGKATLTVEKSSSTVYLELSRLTSDDSAVYYCARRGYGSSYAMDYWGQGTSVTVSS
VL: B1 VL with T12S, T14S, T40A, W56G, E97D, L98H, F99S, L102Y, A106G, L112I
notes: Hybridoma supernatant antibody; murine IgM, kappa; also called subclone C42B12D10
B10: 5M (antibody, human IgG1, kappa)
heavy: QVQLQQPGAELVRPGASVKLSCKASGYTFTSYWINWVKQRPGQGLEWIGNIYPSDSYTNYNQKFKDKATLTVDKSSSTAYMQLSSPTSEDSAVYYCTRSWRGNSFDYWGQGTTLTVSSASTKGPSVFPLAPSSKSTSGGTAALGCLVKDYFPEPVTVSWNSGALTSGVHTFPAVLQSSGLYSLSSVVTVPSSSLGTQTYICNVNHKPSNTKVDKKVEPKSCDKTHTCPPCPAPELLGGPSVFLLPPKPKDTLMISRTPEVTCVVVDVSHEDPEVKFNWYVDGVEVHNAKTKPPEEQYNSTLRVVSILTVLHQDWLNGKEYKCKVSNKALPAPIEKTISKAKGQPREPQVYTLPPSRDELTKNQVSLTCLVKGFYPSDIAVEWESNGQPENNYKTTPLVLDSDGSFFLYSKLTVDKSRWQQGNVFSCSVMHEALHNHYTQKSLSLSPGK
light: DIVMTQSPSSLTVTAGEKVTMSCKSSQSLLNSGNQKNYLTWYQQKPGQPPKLLIYWASTRESGVPDRFTGSGSGTDFTLTISSVQAEDLAVYYCQNDYSYPFTFGSGTKLEIKRTVAAPSVFIFPPSDEQLKSGTASVVCLLNNFYPREAKVQWKVDNALQSGNSQESVTEQDSKDSTYSLSSTLTLSKADYEKHKVYACEVTHQGLSSPVTKSFNRGEC
B11: Hu330-2 (antibody, V domains shown)
VH: EVQLVESGGGLVQPGGSLRLSCAASGFGFSDYGMAWVRQAPGKGLEWVSFISNSAYSIYYADTVTGRFTISRDNAKNSLYLQMNSLRAEDTAVYYCARLGRGNSFAYWGQGTLVTVSS
VL: EIVMTQSPPTLSLSPGERVTLSCKSSQSLLNSGNQKNYLTWYQQKPGQAPRLLIYWGSTRESSIPARFSGSGSGTDFTLTISSLQPEDLAVYYCQNELFYPLTFGQGTKLEIK
B12: 319CHI (antibody, V domains shown)
VH: B1 VH with T28G, L54S, Y101R
VL: B1 VL with E97N, L98Y, F99Y
notes: as for B1
B13: 304CHI (antibody, V domains shown)
VH: B1 VH with T28G, L54S
VL: B1 VL with S62P, E97D, L98Y, F99S
notes: as for B1
B14: 308CHI (antibody, V domains shown)
VH: B1 VH with T28G, L54S
VL: B1 VL with E97D, L98Y, F99S, Y100L, L102F
notes: as for B1
B15: 328CHI (antibody, human IgG1, V domains shown)
VH: B1 VH with T28G, L54S, Y101R
VL: B1 VL with A57G, E97N, L98Y, F99Y
notes: as for B1
B16: 302CHI (antibody, V domains shown)
VH: B1 VH
VL: B1 VL with E97D, L98Y, F99S, Y100L, L102F
notes: as for B1
B17: 313CHI (antibody, V domains shown)
VH: B1 VH with Y101R
VL: B1 VL with E97N, L98Y, F99Y
notes: as for B1
B18: 307CHI (antibody, V domains shown)
VH: B1 VH with T28G, L54S
VL: B1 VL with E97N, L98Y, F99Y
notes: as for B1
B19: 312CHI (antibody, human IgG1, V domains shown)
VH: B1 VH with D31R, R42G, L54S
VL: B1 VL
notes: as for B1
B20: 306CHI (antibody, V domains shown)
VH: B1 VH with Y101R
VL: B1 VL with E97D, L98Y, F99S, Y100F
notes: as for B1

These binders were tested against T1, human Claudin18.1 (CLDN18.1), full length, on cells (human, UniProt P56856 1-261) (assay: FACS on CHO-K1-CLDN18.1 cells).
T1 construct: HEK293-CLDN18.1 cells carry a fusion with green fluorescent protein (ZsGreen); CHO-K1-CLDN18.1 cells carry pcDNA3.1-CLDN18.1; The cell line is named under assay; also called CLDN18.1-FL; HEK293-CLDN18.1 cells
Excerpt: (§1) Human gastric cancer cells NUGC4 and stably transfected cells CHO-K1-CLDN18.1 (prepared in Example 5) were used respectively, to verify the specificity and affinity of the anti-CLDN18.2 antibodies above at the cellular level by FAGS technology. After antibody affinity maturation and screening in vitro, each antibody can bind to the CLDN18.2 target on NUGC4 cells, but not to CHO-K1-CLDN18.1 cells, as compared with the original 3CHI antibody.

Binder | MFI (CLDN18.1) [MFI]
B1 | 68
B2 | 65
B3 | 57
B4 | 248
B5 | 114
B6 | 299
B7 | 85
B8 | 78

What follows are binders tested against T2, human Claudin18.2 (CLDN18.2), full length, on cells (human) (assay: cellular ELISA, hybridoma supernatant on fixed HEK293-CLDN18.2 cells).
T2 construct: also called CLDN18.2-FL; HEK293-CLDN18.2 cells
Method: HEK293-CLDN18.1 and HEK293-CLDN18.2 cells were cultured separately with DMEM complete culture medium containing 10% fetal bovine serum at 37° C., 5% CO₂. When the cells grew to 80%-90% confluency, they were digested with 0.5 mM EDTA-PBS non-trypsin digestion solution at room temperature, and centrifuged at 1000 rpm for 5 minutes, the supernatant was discarded. Resuspended in DMEM complete culture medium, and the cell concentration was adjusted to 6×10⁵ cells/ml. Cells were plated on 96-well cell plates (Corning) pre-coated with polylysine, 100 μl per well, incubated at 37° C., 5% CO₂ for 24 hours, making cells evenly and completely plated on the bottom of the well. The culture supernatant was aspirated, and the cells were fixed with 4% paraformaldehyde at room temperature for 20 minutes, washed 3 times with 200 μl PBS, 2 minutes at each time. The well plates were blocked with 200 μl of 3% BSA-PBS at 37° C. for 1 hour. […] of subclone culture supernatant was taken and added into the well plate, incubated at 37° C. for 1 hour, washed 5 times with PBS. Incubation with HRP-anti mouse IgG+IgM (Jackson) diluted 1:10000 in blocking solution was performed at 37° C. for 1 hour followed by washing 5 times with PBS. 100 μl of TMB one-component color developing solution was added, protected from light at room temperature for 5-10 minutes, terminated with 2M sulfuric acid, and OD450 was read on the microplate reader. The results are shown in Table 3, subclones of which the hybridoma culture supernatant show strong positive binding to CLDN18.2 (that is, the OD value is 50% higher than the OD value of the positive control) include: S3F10C5, S5H3A6, S5H3B6, S5H3D6, S6F10E7, S6H9B8, S6H9C8, C40B10D9, C42B12D10 and C58B11E11. Among these subclones, S5H3A6, S5H3B6, S5H3D6, C40B10D9, C42B12D10 and C58B11E11 show negative binding to CLDN18.1 cells.

Binder | OD450 [OD]
B9 | 0.76

What follows are binders tested against T3, antigen protein Claudin18.2-His (human, UniProt P56856-2 1-261, limits assumed) (assay: BLI (Fortebio Octet RED96), antibody on AHC sensor, Claudin18.2-His in solution, 37 °C).
T3 construct: also called CLDN18.2 protein
Method: Next, antibodies were immobilized by the AHC sensor, and then combined with different concentrations of antigens, and determination of the affinity was performed according to the manual of Octet RED96.

Binder | Kd [nM] | koff [s⁻¹] | kon [M⁻¹ s⁻¹]
B1 | 0.865 | 4.44e-05 | 51300

Each binder was assayed against T2, human Claudin18.2 (CLDN18.2), full … (assay: cell-based or functional assay).

Binder | ADCC activity by luciferase labeling, EC50 [nM] | ADCC activity by luciferase labeling, Top
B10 | 0.44 | 98400

Target: T2, human Claudin18.2 (CLDN18.2), full …
Test: cell-based or functional assay
Remark: another data set of the same source

Binder | ADCC activity by luciferase labeling, EC50 [nM] | ADCC activity by luciferase labeling, Top
B11 | 0.11 | 65100

What follows are binders tested against T1, human Claudin18.1 (CLDN18.1), full … (assay: cellular ELISA).

Binder | binding result
B1 | no binding
B2 | no binding
B12 | no binding
B13 | no binding
B14 | no binding
B15 | no binding
B3 | no binding
B4 | no binding
B5 | no binding
B16 | no binding
B17 | no binding
B6 | no binding
B18 | no binding
B19 | no binding
B7 | no binding
B8 | no binding
B20 | no binding

The binders below were run against T2, human Claudin18.2 (CLDN18.2), full … (assay: cellular ELISA).

Binder | binding result
B12 | binds
B13 | binds
B14 | binds
B15 | binds
B16 | binds
B17 | binds
B18 | binds
B19 | binds
B20 | binds

What follows are binders tested against T2, human Claudin18.2 (CLDN18.2), full … (assay: FACS on NUGC4 cells).
Excerpt: as §1

Binder | MFI (CLDN18.2) [MFI]
B1 | 38900
B2 | 42300
B3 | 44800
B4 | 36000
B5 | 44400
B6 | 46300
B7 | 38200
B8 | 42500

Target: T2, human Claudin18.2 (CLDN18.2), full …
Test: cell-based or functional assay
Remark: another data set of the same source

Binder | in-vitro ADCC activity, Jurkat-CD16A/NF luciferase reporter, EC50 [nM] | in-vitro ADCC activity, Jurkat-CD16A/NF luciferase reporter, Top
B1 | 0.28 | 216000
